Laboratory results from patent US20250034212A1, “PEPTIDE” (PEPTIDREAM INC., priority 2021, published 2025).
Starred links: 1 amine or outer side, 2 acyl side, 3 side chain; linkers in the order of their positions; H or OH if unused. Positions of bridges follow the written chain, without caps; N, C: chain ends. Non-standard residues stand in square brackets, D forms with d. KCOmeglumine = N6-(methyl-((2S,3R,4R,5R)-2,3,4,5,6-pentahydroxyhexyl)carbamoyl)-L-lysine, CN(C[C@H](O)[C@@H](O)[C@H](O)[C@H](O)CO)C(=O)NCCCC[C@H](N[*:1])C(=O)[*:2]; KCOpipzaa = N6-(4-(carboxymethyl)piperazine-1-carbonyl)-L-lysine, O=C(NCCCC[C@H](N[*:1])C(=O)[*:2])N1CCN(CC(=O)[*:3])CC1; 1Nal = N[C@@H](Cc1cccc2ccccc12)C(=O)O; Gly(NCH2CH2Ph) = O=C(O)CNCCc1ccccc1; 4Pal = N[C@@H](Cc1ccncc1)C(=O)O

Molecular target: recombinant human TGF-β1 (R&D systems) (human, UniProt P01137 279-390)
Sequence (P01137 279-390 limits assumed): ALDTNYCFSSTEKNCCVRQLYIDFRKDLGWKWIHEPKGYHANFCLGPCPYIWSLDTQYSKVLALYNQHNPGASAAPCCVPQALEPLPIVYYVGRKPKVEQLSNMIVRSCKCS
Test: cell-based or functional assay

Row | SBE reporter % inhibition, peptide 0.062 nM | SBE reporter % inhibition, peptide 0.185 nM | SBE reporter % inhibition, peptide 0.56 nM | SBE reporter % inhibition, peptide 1.7 nM | SBE reporter % inhibition, peptide 5.0 nM | SBE reporter % inhibition, peptide 15.0 nM | Binder
1 | 5.79% | 16.6% | 45% | 80.2% | 95.5% | 98.9% | {CH2CO}-F[1Nal]V[KCOmeglumine]NV[4Pal]DE[Gly(NCH2CH2Ph)]V[1Nal]YH[KCOpipzaa]CG-NH2 (thioether N-16; SMILES CC(C)[C@@H]1NC(=O)CN(CCc2ccccc2)C(=O)[C@H](CCC(=O)O)NC(=O)[C@H](CC(=O)O)NC(=O)[C@H](Cc2ccncc2)NC(=O)[C@H](C(C)C)NC(=O)[C@H](CC(N)=O)NC(=O)[C@H](CCCCNC(=O)N(C)C[C@H](O)[C@@H](O)[C@H](O)[C@H](O)CO)NC(=O)[C@H](C(C)C)NC(=O)[C@H](Cc2cccc3ccccc23)NC(=O)[C@H](Cc2ccccc2)NC(=O)CSC[C@@H](C(=O)NCC(N)=O)NC(=O)[C@H](CCCCNC(=O)N2CCN(CC(=O)O)CC2)NC(=O)[C@H](Cc2c[nH]cn2)NC(=O)[C@H](Cc2ccc(O)cc2)NC(=O)[C@H](Cc2cccc3ccccc23)NC1=O) [TGFb1_024]
2 | 6.85% | 17.8% | 41.4% | 74.3% | 93.4% | 98% | {CH2CO}-F[1Nal]V[KCOmeglumine]NV[4Pal]D[KCOmeglumine][Gly(NCH2CH2Ph)]V[1Nal]YH[KCOpipzaa]CG-NH2 (thioether N-16; SMILES CC(C)[C@@H]1NC(=O)CN(CCc2ccccc2)C(=O)[C@H](CCCCNC(=O)N(C)C[C@H](O)[C@@H](O)[C@H](O)[C@H](O)CO)NC(=O)[C@H](CC(=O)O)NC(=O)[C@H](Cc2ccncc2)NC(=O)[C@H](C(C)C)NC(=O)[C@H](CC(N)=O)NC(=O)[C@H](CCCCNC(=O)N(C)C[C@H](O)[C@@H](O)[C@H](O)[C@H](O)CO)NC(=O)[C@H](C(C)C)NC(=O)[C@H](Cc2cccc3ccccc23)NC(=O)[C@H](Cc2ccccc2)NC(=O)CSC[C@@H](C(=O)NCC(N)=O)NC(=O)[C@H](CCCCNC(=O)N2CCN(CC(=O)O)CC2)NC(=O)[C@H](Cc2c[nH]cn2)NC(=O)[C@H](Cc2ccc(O)cc2)NC(=O)[C@H](Cc2cccc3ccccc23)NC1=O) [TGFb1_026]
3 | 4.81% | 18.4% | 43.3% | 77.5% | 94.7% | 99.4% | {CH2CO}-F[1Nal]V[KCOmeglumine]NV[4Pal]D[KCOpipzaa][Gly(NCH2CH2Ph)]V[1Nal]YH[KCOpipzaa]CG-NH2 (thioether N-16; SMILES CC(C)[C@@H]1NC(=O)CN(CCc2ccccc2)C(=O)[C@H](CCCCNC(=O)N2CCN(CC(=O)O)CC2)NC(=O)[C@H](CC(=O)O)NC(=O)[C@H](Cc2ccncc2)NC(=O)[C@H](C(C)C)NC(=O)[C@H](CC(N)=O)NC(=O)[C@H](CCCCNC(=O)N(C)C[C@H](O)[C@@H](O)[C@H](O)[C@H](O)CO)NC(=O)[C@H](C(C)C)NC(=O)[C@H](Cc2cccc3ccccc23)NC(=O)[C@H](Cc2ccccc2)NC(=O)CSC[C@@H](C(=O)NCC(N)=O)NC(=O)[C@H](CCCCNC(=O)N2CCN(CC(=O)O)CC2)NC(=O)[C@H](Cc2c[nH]cn2)NC(=O)[C@H](Cc2ccc(O)cc2)NC(=O)[C@H](Cc2cccc3ccccc23)NC1=O) [TGFb1_025]
